# In patent publication US20240174765A1 (ACADEMIA SINICA, published 2024):
# How the values were obtained:
# [1] = molecular target: T1, enolase 1 (ENO1), endogenous in CL1-5 human lung cancer cells (human, UniProt P06733 2-434); assay: flow cytometry on live cells
# T1 construct: whole, on cells; Used for ENO1 on the surface of live or fixed CL1-5 cells, and for endogenous ENO1 in CL1-5 membrane extracts and lysates (cross-link IP, co-IP); also called alpha-enolase; surface form ENO1
# [2] = molecular target: T1, enolase 1 (ENO1), endogenous in CL1-5 …; assay: flow cytometry on live CL1-5 cells
# T1 sequence (P06733 2-434): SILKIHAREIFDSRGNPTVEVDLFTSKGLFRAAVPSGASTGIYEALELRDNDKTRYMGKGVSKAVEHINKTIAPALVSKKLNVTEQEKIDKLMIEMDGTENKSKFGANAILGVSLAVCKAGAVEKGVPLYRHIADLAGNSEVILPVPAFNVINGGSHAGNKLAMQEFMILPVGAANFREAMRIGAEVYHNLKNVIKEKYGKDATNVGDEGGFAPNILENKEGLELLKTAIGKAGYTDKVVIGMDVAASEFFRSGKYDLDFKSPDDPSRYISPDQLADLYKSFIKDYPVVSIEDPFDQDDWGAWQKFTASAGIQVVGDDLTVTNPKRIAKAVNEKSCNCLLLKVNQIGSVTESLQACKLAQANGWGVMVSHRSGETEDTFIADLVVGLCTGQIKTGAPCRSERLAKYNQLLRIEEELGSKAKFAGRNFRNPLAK
Binder,binding result [1],binding result [2]
"chimeric ENO1-22 (chENO1-22) (antibody, V domains shown, Variable domain of anti-ENO1 mAb-22 cloned into a human IgG Fc vector; also called chimeric ENO1 mAb; chimeric ENO1 antibody) VH: QVQLQQSGPEVVRPGVSVKISCKGSGYTFTDYAMHWVKQSHAKSLEWIGVISTYNGNTNYNQKFKGKATMTVDKSSSTAYMELARLTSEDSAIYYCARSPLRYWGQGTTLTVSS VL: QIVLSQSPAILSASPGEKVTMTCRASSSVSYMHWYQQKPGSSPKPWIYATSNLASGVPARFSGSGSGTSYSLTISRVEAEDAATYYCQQWSSNPLTFGAGTKLELK",binds,
"anti-ENO1 mAb-22 (antibody, V domains shown, Mouse hybridoma monoclonal antibody; also called ENO1-22; anti-ENO1 mAb-22 antibody) VH: QVQLQQSGPEVVRPGVSVKISCKGSGYTFTDYAMHWVKQSHAKSLEWIGVISTYNGNTNYNQKFKGKATMTVDKSSSTAYMELARLTSEDSAIYYCARSPLRYWGQGTTLTVSS VL: QIVLSQSPAILSASPGEKVTMTCRASSSVSYMHWYQQKPGSSPKPWIYATSNLASGVPARFSGSGSGTSYSLTISRVEAEDAATYYCQQWSSNPLTFGAGTKLELK",,binds
